Results from publication PMC12520543, “An Apple Susceptibility‐Related LRR Receptor‐Like Kinase MdRLKT21 Activates Plant Immunity by Hijacking a Trans‐Kingdom Fungal microRNA‐Like RNA” (Advanced Science, 2025).

Target: T1, GST-MdRFP1-His (apple (M. domestica), labeled with the Monolith NT Protein Labeling Kit RED)
T1 construct: MdRFP1, apple C3HC4-type RING finger protein 1, GenBank XP_017184215.2; Vector pGEX-6P-1; The results name GST-MdRFP1-His for the MST; the MST methods say only 'MdRFP1 was purified and labeled'; also called labeled MdRFP1; source: E. coli BL21 (DE3), purified (glutathione agarose and HisPur Ni-NTA resin are named for the set of recombinant proteins); not shown: GST, N-terminal, kept; His, …
T1 sequence (main, as listed by the source): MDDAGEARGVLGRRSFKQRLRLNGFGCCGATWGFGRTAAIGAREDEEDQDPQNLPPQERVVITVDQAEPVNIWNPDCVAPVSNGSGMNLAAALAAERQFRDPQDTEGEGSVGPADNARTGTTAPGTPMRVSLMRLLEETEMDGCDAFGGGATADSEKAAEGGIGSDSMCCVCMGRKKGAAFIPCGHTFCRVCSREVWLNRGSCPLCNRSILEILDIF
Assay: MST; labeled MdRFP1 (Monolith NT Protein Labeling Kit RED) incubated with a gradient dilution of MdRLKT21-KD for 30 min at RT; standard treated capillaries; Monolith NT.115
Conditions: both partners purified

- Kd: 14 ± 4.24 nM
B1: GST-MdRLKT21-KD (domain or fragment)
chain: RVRSRAKEGKTGKEKVVKEVAEVVVVEEGEGQNGKFVVLDEGFGLDLEDLLRASAYVVGKSRSGITYRVVAGSGGKGPGAAPSVVAVRRLSEGDATWRLKEFEAEVEAIGKVVHPNIVRLRAYYYASDEKLLVTDFIRNGSLYNALHGGPSNSLPPLPWTARLKIAQGTARGLMYIHEHSTRKYVHGNIKSTKILLNDDLQPYISGFGLARLMLGTSKFTTSASRRQNSNESIVASGLVVPTSSTIYLAPEARISRSKFTQKCDVYSFGIVLLEILTGRLPDEGLENGGKGLESLVRKTFRDERPLSEIIDPALLQEVYAKKQVVEAFHIALNCTELDPELRPRMKTVSESLDRLKLQC
